The supplement of paper PMC11246515
± gives the standard deviation of the averaged measurements.

Experiment: total protein half-life in vivo (active degradation + dilution); higher = more stable protein
[1] = E. coli NCM3722 delta-clpP delta-lon delta-hslV, growth: N-lim chemostat, doubling time 6 h
[2] = E. coli NCM3722 delta-clpP, growth: N-lim chemostat, doubling time 6 h
[3] = E. coli NCM3722 delta-hslV, growth: N-lim chemostat, doubling time 6 h
[4] = E. coli NCM3722 delta-lon, growth: N-lim chemostat, doubling time 6 h
[5] = E. coli NCM3722 delta-smpB, growth: N-lim chemostat, doubling time 6 h
[6] = wild type E. coli NCM3722, growth: C-lim chemostat, doubling time 3 h
[7] = wild type E. coli NCM3722, growth: C-lim chemostat, doubling time 6 h
[8] = wild type E. coli NCM3722, growth: N-lim chemostat, doubling time 6 h
[9] = wild type E. coli NCM3722, growth: N-lim chemostat, doubling time 12 h
[10] = wild type E. coli NCM3722, growth: P-lim chemostat, doubling time 6 h
[11] = wild type E. coli NCM3722, growth: P-lim chemostat, doubling time 12 h
[12] = wild type E. coli NCM3722, growth: C-lim chemostat, doubling time 12 h

Row | Sequence | total protein half-life in vivo [1] | total protein half-life in vivo [2] | total protein half-life in vivo [3] | total protein half-life in vivo [4] | total protein half-life in vivo [5] | total protein half-life in vivo [6] | total protein half-life in vivo [7] | total protein half-life in vivo [8] | total protein half-life in vivo [9] | total protein half-life in vivo [10] | total protein half-life in vivo [11] | total protein half-life in vivo [12]
1 | MKLAACFLTLLPGFAVAASWTSPGFPAFSEQGTGTFVSHAQLPKGTRPLTLNFDQQCWQPADAIKLNQMLSLQPCSNTPPQWRLFRDGEYTLQIDTRSGTPTLMISIQNAAEPVASLVRECPKWDGLPLTVDVSATFPEGAAVRDYYSQQIAIVKNGQIMLQPAATSNGLLLLERAETDTSAPFDWHNATVYFVLTDRFENGDPSNDQSYGRHKDGMAEIGTFHGGDLRGLTNKLDYLQQLGVNALWISAPFEQIHGWVGGGTKGDFPHYAYHGYYTQDWTNLDANMGNEADLRTLVDSAHQRGIRILFDVVMNHTGYATLADMQEYQFGALYLSGDEVKKSLGERWSDWKPAAGQTWHSFNDYINFSDKTGWDKWWGKNWIRTDIGDYDNPGFDDLTMSLAFLPDIKTESTTASGLPVFYKNKMDTHAKAIDGYTPRDYLTHWLSQWVRDYGIDGFRVDTAKHVELPAWQQLKTEASAALREWKKANPDKALDDKPFWMTGEAWGHGVMQSDYYRHGFDAMINFDYQEQAAKAVDCLAQMDTTWQQMAEKLQGFNVLSYLSSHDTRLFREGGDKAAELLLLAPGAVQIFYGDESSRPFGPTGSDPLQGTRSDMNWQDVSGKSAASVAHWQKISQFRARHPAIGAGKQTTLLLKQGYGFVREHGDDKVLVVWAGQQ | 4.78 ± 0.17 h | 7.23 ± 0.88 h | 4.97 h | 7.45 h | 5.36 ± 0.33 h | 3.262 ± 0.0075 h | 6.26 ± 0.66 h | 5.75 h | 9.72 h | 7.07 h | 9.37 ± 2.8 h | 
2 | MTTLTARPEAITFDPQQSALIVVDMQNAYATPGGYLDLAGFDVSTTRPVIANIQTAVTAARAAGMLIIWFQNGWDEQYVEAGGPGSPNFHKSNALKTMRKQPQLQGKLLAKGSWDYQLVDELVPQPGDIVLPKPRYSGFFNTPLDSILRSRGIRHLVFTGIATNVCVESTLRDGFFLEYFGVVLEDATHQAGPKFAQKAALFNIETFFGWVSDVETFCDALSPTSFAHIA | 4.33 ± 0.13 h | 1.41 ± 0.23 h | 0.334 h | 0.503 ± 0.025 h | 0.441 h |  |  |  | 0.812 h |  |  | 
3 | MSKSENLYSAARELIPGGVNSPVRAFTGVGGTPLFIEKADGAYLYDVDGKAYIDYVGSWGPMVLGHNHPAIRNAVIEAAERGLSFGAPTEMEVKMAQLVTELVPTMDMVRMVNSGTEATMSAIRLARGFTGRDKIIKFEGCYHGHADCLLVKAGSGALTLGQPNSPGVPADFAKYTLTCTYNDLASVRAAFEQYPQEIACIIVEPVAGNMNCVPPLPEFLPGLRALCDEFGALLIIDEVMTGFRVALAGAQDYYGVVPDLTCLGKIIGGGMPVGAFGGRRDVMDALAPTGPVYQAGTLSGNPIAMAAGFACLNEVAQPGVHETLDELTTRLAEGLLEAAEEAGIPLVVNHVGGMFGIFFTDAESVTCYQDVMACDVERFKRFFHMMLDEGVYLAPSAFEAGFMSVAHSMEDINNTIDAARRVFAKL | 6.35 ± 2.3 h | 4.99 ± 0.35 h | 5 ± 0.21 h | 5.33 ± 0.43 h | 3.93 ± 0.1 h | 3.45 ± 0.48 h | 7.43 ± 0.21 h | 4.57 ± 0.2 h | 7.897 ± 0.015 h | 5.51 ± 0.059 h | 12.6 ± 0.035 h | 11.3 ± 1.3 h
4 | MADITLISGSTLGGAEYVAEHLAEKLEEAGFTTETLHGPLLEDLPASGIWLVISSTHGAGDIPDNLSPFYEALQEQKPDLSAVRFGAIGIGSREYDTFCGAIDKLEAELKNSGAKQTGETLKINILDHDIPEDPAEEWLGSWVNLLK | 3.22 ± 0.1 h | 2.99 h | 2.93 ± 0.18 h | 3.47 ± 0.17 h | 2.78 ± 0.15 h | 2.86 ± 0.48 h | 4.66 ± 0.56 h | 2.67 ± 0.13 h | 3.68 ± 0.24 h | 5.07 ± 0.09 h | 9.52 ± 0.099 h | 9.28 ± 2 h
5 | MSLAGKKIVLGVSGGIAAYKTPELVRRLRDRGADVRVAMTEAAKAFITPLSLQAVSGYPVSDSLLDPAAEAAMGHIELGKWADLVILAPATADLIARVAAGMANDLVSTICLATPAPVAVLPAMNQQMYRAAATQHNLEVLASRGLLIWGPDSGSQACGDIGPGRMLDPLTIVDMAVAHFSPVNDLKHLNIMITAGPTREPLDPVRYISNHSSGKMGFAIAAAAARRGANVTLVSGPVSLPTPPFVKRVDVMTALEMEAAVNASVQQQNIFIGCAAVADYRAATVAPEKIKKQATQGDELTIKMVKNPDIVAGVAALKDHRPYVVGFAAETNNVEEYARQKRIRKNLDLICANDVSQPTQGFNSDNNALHLFWQDGDKVLPLERKELLGQLLLDEIVTRYDEKNRR [P0ABQ0] | 6.25 ± 0.61 h | 6.16 ± 0.64 h | 5.48 ± 0.55 h | 5.48 ± 0.67 h | 4.75 ± 0.079 h | 3.15 ± 0.096 h | 5.63 ± 0.26 h | 4.7 ± 0.6 h | 8.72 ± 0.93 h | 6.17 ± 0.24 h | 11.8 ± 0.15 h | 12.5 ± 3.3 h
